Laboratory results: paper PMC10783487

Biological target: T1, TbrCan2 E341A E341A (Thermoanaerobacter brockii subsp. finnii Ako-1 DSM 1457) (UniProt E8URK0)
T1 sequence: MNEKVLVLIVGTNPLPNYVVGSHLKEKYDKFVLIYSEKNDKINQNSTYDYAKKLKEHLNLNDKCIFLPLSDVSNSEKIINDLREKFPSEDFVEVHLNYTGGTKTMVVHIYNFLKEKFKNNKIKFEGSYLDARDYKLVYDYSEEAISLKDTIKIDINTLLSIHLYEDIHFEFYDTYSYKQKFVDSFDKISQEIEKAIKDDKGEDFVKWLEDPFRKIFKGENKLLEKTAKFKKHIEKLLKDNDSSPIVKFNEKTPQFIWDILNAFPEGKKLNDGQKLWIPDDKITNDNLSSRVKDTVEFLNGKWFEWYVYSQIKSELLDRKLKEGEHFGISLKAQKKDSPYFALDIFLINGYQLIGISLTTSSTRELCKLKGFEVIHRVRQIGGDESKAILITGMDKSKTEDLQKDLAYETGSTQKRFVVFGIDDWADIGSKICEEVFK
Experiment: EMSA

Work on ssRNA substrate yielded a Kd of 240 nM.
